The assay deals with T1, Trop2 (human, UniProt P09758 27-323).
T1 sequence (looked up): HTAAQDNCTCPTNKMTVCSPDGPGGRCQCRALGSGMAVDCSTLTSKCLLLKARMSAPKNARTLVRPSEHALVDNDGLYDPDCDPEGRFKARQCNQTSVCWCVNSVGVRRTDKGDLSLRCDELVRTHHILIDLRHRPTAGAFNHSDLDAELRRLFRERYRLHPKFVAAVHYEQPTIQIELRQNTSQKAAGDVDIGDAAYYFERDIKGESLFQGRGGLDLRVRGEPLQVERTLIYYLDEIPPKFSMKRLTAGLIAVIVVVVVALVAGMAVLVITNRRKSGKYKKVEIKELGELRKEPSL
The experiment in a line: cell-based or functional assay.

B1: ADC-1-1a (antibody, human IgG1, kappa, DAR 7.59)
heavy: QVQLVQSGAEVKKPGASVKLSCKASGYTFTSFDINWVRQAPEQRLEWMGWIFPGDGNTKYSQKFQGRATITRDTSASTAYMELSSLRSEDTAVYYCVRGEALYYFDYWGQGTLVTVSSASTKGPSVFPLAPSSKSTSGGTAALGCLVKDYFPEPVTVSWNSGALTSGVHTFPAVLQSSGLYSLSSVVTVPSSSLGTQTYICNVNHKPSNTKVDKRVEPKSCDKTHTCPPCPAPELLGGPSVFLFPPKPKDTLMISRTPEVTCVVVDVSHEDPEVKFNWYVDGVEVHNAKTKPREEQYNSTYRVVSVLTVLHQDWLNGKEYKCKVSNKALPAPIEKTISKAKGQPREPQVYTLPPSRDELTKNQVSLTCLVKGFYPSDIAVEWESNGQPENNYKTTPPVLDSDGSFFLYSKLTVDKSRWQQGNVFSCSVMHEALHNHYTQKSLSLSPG
light: DIQMTQSPSSLSASVGDRVTITCRASQDINKYLAWYQQKPGKVPKLLIYSTSTLQSGVPSRFSGSGSGTDFTLTISSLQPEDVATYYCLQYDDLFTFGQGTKLEIKRTVAAPSVFIFPPSDEQLKSGTASVVCLLNNFYPREAKVQWKVDNALQSGNSQESVTEQDSKDSTYSLSSTLTLSKADYEKHKVYACEVTHQGLSSPVTKSFNRGEC
modifications: linker-payload LP-1a on a cysteine thiol of the reduced interchain disulfide (general step A); residue not stated; linker-payload LP-1a (auristatin E derivative) on cysteine thiols of the fully reduced interchain disulfides (general step A); residues not stated; average DAR 7.59
On to B1, for which the “IC50 (nM), in vitro cytotoxicity (120h), MTS cell viability, A431 cells (Trop2 positive)” value (shortened to “IC50 (nM) … A431 cells (Trop2 positive)”) came out at 0.01 nM; the “IC50 (nM), in vitro cytotoxicity (120h), MTS cell viability, BxPC-3 cells (Trop2 positive)” value (“IC50 (nM) … BxPC-3 cells (Trop2 positive)” for short) was determined as 0.02 nM; the “IC50 (nM), in vitro cytotoxicity (120h), MTS cell viability, NCI-N87 cells (Trop2 positive)” value (from here on “IC50 (nM) … NCI-N87 cells (Trop2 positive)”) was determined as 0.36 nM.

B2: ADC-C-1a (antibody, human IgG1, kappa, DAR 7.34)
heavy: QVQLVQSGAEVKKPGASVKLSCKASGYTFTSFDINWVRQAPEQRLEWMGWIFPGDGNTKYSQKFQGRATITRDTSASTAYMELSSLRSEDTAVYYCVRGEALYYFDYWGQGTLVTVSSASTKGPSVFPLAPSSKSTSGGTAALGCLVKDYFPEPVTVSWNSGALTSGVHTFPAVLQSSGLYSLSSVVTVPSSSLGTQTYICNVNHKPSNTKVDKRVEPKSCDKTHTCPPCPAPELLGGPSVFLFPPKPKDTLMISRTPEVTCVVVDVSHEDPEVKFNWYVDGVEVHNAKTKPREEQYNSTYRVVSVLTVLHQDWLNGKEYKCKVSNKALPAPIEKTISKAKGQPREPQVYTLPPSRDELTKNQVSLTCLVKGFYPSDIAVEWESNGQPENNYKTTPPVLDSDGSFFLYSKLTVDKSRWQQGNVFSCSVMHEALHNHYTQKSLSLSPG
light: B1 light
modifications: VcMMAE on a cysteine thiol of the reduced interchain disulfide (general step A); residue not stated; VcMMAE (MC-VC-PAB-MMAE) on cysteine thiols of the fully reduced interchain disulfides (general step A); residues not stated; average DAR 7.34
In the case of B2, the “IC50 (nM) … A431 cells (Trop2 positive)” value was 0.02 nM; the “IC50 (nM) … BxPC-3 cells (Trop2 positive)” value came to 0.04 nM; the “IC50 (nM) … NCI-N87 cells (Trop2 positive)” value was 0.63 nM.

B3: ADC-2-1a (antibody, human IgG1, kappa, DAR 7.31)
heavy: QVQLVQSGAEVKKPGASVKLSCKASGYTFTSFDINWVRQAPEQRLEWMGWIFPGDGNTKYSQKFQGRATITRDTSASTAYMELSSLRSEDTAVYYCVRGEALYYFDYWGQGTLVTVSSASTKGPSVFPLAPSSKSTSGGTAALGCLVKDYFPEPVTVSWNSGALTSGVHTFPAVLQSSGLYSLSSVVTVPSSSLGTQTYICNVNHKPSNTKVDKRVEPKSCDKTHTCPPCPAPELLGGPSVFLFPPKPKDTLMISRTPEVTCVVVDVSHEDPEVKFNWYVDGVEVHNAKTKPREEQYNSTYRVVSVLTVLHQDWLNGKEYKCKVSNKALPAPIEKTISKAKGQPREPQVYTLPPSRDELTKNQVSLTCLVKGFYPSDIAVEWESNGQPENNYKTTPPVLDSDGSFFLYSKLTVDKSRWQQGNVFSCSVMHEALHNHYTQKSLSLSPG
light: B1 light
modifications: one linker-payload LP-2a on each light chain, maleimide partly ring-opened; residue not stated; linker-payload LP-2a (MMAE derivative) on cysteine thiols of the fully reduced interchain disulfides (general step A); residues not stated; average DAR 7.31
For the molecule B3, the “IC50 (nM) … A431 cells (Trop2 positive)” value amounted to 0.005 nM; the “IC50 (nM) … BxPC-3 cells (Trop2 positive)” value is 0.02 nM; the “IC50 (nM) … NCI-N87 cells (Trop2 positive)” value came to 0.35 nM.

B4: ADC-1-2a (antibody, human IgG1, kappa, DAR 1.79)
heavy: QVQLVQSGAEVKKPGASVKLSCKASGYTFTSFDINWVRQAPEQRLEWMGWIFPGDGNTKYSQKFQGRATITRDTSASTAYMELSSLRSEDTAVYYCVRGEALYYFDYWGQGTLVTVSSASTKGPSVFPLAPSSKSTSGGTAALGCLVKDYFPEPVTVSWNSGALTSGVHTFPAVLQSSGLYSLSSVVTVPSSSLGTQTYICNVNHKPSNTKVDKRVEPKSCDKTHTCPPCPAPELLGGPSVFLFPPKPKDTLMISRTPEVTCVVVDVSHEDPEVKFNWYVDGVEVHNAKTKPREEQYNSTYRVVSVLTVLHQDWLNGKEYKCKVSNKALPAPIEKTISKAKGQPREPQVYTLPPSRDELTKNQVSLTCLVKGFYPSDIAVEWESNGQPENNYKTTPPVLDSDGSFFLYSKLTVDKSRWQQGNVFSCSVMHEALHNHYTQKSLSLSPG
light: DIQMTQSPSSLSASVGDRVTITCRASQDINKYLAWYQQKPGKVPKLLIYSTSTLQSGVPSRFSGSGSGTDFTLTISSLQPEDVATYYCLQYDDLFTFGQGTKLEIKRTVAAPSVFIFPPSDEQLKSGTASVVCLLNNFYPREAKVQWKVDNALQSGNSQESVTEQDSKDSTYSLSSTLTLSKADYEKHKVYACEVTHQGLSSPVCTKSFNRGEC
modifications: linker-payload LP-1a conjugated site-specifically after partial reduction (general step B), average DAR 1.79; chain and residue not stated
For B4, the “IC50 (nM) … A431 cells (Trop2 positive)” value was found to be 0.05 nM; the “IC50 (nM) … BxPC-3 cells (Trop2 positive)” value was 0.25 nM; the “IC50 (nM) … NCI-N87 cells (Trop2 positive)” value amounted to 2.6 nM.

B5: ADC-C-2a (antibody, human IgG1, kappa, DAR 1.85)
heavy: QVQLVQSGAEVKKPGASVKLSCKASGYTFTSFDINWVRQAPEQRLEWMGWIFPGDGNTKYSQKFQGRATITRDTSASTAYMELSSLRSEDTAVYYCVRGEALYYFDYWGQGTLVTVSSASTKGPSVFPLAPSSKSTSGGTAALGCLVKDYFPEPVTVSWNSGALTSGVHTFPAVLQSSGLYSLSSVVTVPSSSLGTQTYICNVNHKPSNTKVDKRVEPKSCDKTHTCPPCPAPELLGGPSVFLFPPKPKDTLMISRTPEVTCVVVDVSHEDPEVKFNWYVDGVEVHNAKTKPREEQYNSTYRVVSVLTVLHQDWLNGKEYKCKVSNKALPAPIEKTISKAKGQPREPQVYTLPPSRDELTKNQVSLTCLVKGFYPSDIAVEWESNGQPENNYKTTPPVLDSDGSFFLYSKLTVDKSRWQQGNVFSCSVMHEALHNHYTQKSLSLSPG
light: B4 light
modifications: VcMMAE conjugated site-specifically after partial reduction (general step B), average DAR 1.85; chain and residue not stated
As to B5, the “IC50 (nM) … A431 cells (Trop2 positive)” value was determined as 0.32 nM; the “IC50 (nM) … BxPC-3 cells (Trop2 positive)” value was 0.87 nM; the “IC50 (nM) … NCI-N87 cells (Trop2 positive)” value was found to be 4.9 nM.

B6: ADC-2-2a (antibody, human IgG1, kappa, DAR 1.81)
heavy: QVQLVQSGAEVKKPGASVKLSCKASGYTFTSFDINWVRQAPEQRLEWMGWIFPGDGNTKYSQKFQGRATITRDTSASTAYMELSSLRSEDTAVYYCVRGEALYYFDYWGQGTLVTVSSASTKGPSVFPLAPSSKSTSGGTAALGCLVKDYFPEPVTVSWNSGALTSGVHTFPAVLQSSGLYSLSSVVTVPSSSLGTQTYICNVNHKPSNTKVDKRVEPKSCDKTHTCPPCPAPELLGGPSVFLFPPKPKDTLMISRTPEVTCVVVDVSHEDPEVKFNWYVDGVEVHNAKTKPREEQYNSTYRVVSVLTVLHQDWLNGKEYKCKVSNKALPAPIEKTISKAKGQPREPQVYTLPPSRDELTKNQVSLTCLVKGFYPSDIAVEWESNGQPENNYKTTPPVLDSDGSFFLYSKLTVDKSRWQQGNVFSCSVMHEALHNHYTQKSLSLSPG
light: B4 light
modifications: linker-payload LP-2a conjugated site-specifically after partial reduction (general step B), average DAR 1.81; chain and residue not stated
On to B6, for which the “IC50 (nM) … A431 cells (Trop2 positive)” value was 0.11 nM; the “IC50 (nM) … BxPC-3 cells (Trop2 positive)” value was 0.46 nM; the “IC50 (nM) … NCI-N87 cells (Trop2 positive)” value was found to be 4.7 nM.

The values are drawn from patent EP4595979A1 (SystImmune, Inc., dated 2024).
